Test results taken from publication PMC3796484.

Target: spliced X-box binding protein (Xbp1s), P17861-2
Assay: two-hybrid assay (Gal4 UAS-CAT reporter in transfected cells)
Settings: CAT activity normalized to β-galactosidase internal control; P=.008; parent: est. 3.4; read off a plot

spliced X-box binding protein (Xbp1s), P17861-2, sequence (P17861 other isoform, or with tags, fused parts or gaps): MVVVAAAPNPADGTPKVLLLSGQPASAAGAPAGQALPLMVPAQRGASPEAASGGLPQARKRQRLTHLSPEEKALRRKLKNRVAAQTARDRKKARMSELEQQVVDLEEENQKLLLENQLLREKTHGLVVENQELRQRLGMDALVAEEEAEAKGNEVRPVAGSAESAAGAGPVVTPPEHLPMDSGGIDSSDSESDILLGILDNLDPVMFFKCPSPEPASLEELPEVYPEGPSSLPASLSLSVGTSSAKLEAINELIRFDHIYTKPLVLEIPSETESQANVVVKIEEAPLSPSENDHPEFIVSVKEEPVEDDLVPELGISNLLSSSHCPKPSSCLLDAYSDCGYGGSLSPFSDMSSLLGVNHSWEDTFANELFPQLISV

other: Ratio (with:without activator): 1
Substance: Zhangfei linked to the DNA-binding domain of yeast GAL4 (from UniProt Q9NS37) ZF(L/A)
